The record followed here is publication doi:10.1101/602623.

Numbering of substitutions follows the chain as printed.

Data set [1] concerns the target T1, Cas1-2 integrase complex Wt (Escherichia coli (type I-E), UniProt Q46896;P45956 1-305;1-94).
T1 sequence 1: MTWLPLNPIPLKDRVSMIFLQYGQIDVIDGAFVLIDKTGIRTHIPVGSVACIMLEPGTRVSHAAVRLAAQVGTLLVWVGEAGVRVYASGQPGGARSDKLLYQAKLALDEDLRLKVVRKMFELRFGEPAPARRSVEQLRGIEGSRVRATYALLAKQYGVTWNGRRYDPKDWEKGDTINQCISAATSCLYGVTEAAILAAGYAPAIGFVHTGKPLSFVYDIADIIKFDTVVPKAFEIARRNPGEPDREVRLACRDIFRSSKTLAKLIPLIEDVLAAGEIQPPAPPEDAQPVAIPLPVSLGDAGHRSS
T1 sequence 2: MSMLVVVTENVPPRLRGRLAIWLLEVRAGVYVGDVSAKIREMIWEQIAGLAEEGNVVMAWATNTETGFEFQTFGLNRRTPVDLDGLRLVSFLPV
The data set is described as follows: EMSA.

Data set [2] deals with T1, Cas1-2 integrase complex Wt. The data set can be described thus: T5 exonuclease footprinting.
Data set [3] concerns the target T2, Cas1-2 Y22A (Escherichia coli (type I-E), UniProt Q46896;P45956 1-305;1-94, Y22A).
T2 sequence 1: T1 sequence 1 with Y22A
T2 sequence 2: T1 sequence 2
The data set can be described thus: EMSA. For orientation: In EMSA bound probe runs differently from free probe, usually more slowly.

B1: P23[3'-10] (dsDNA)
DNA 1: ATTTACTACTCGTTCTGGTGTTTCTCGTCAGGG
DNA 2: AAACACCAGAACGAGTAGTAAATTGGGCTTGAG
In turn, B1 registered a Kd in data set [1] of 286 nM.

B2: P63mPAMT* (dsDNA)
DNA 1: CTCCGCGCTGTAGCCCTCACCACTGTTGTGCACGACGACACCAGTCCGTGGCGTTATCCAGCT
DNA 2: AGCTGGATAACGCCACGGACTGGTGTCGTCGTGCACAACAGTGGTGAGGGCTACAGCGCGGAG
In the case of B2, the binding result in data set [2] was “binds”.

B3: P63mPAMB* (dsDNA)
DNA 1: B2 DNA 1
DNA 2: B2 DNA 2
Regarding B3, in data set [2], the binding result is listed as “binds”.

B4: P63 (dsDNA)
DNA 1: B2 DNA 1 with C14A, C15A, C16G, C23T, C41T, G44T
DNA 2: B2 DNA 2 with C20A, G23A, G41A, G48C, G49T, G50T
For B4, the Kd was 6220 nM in data set [3] and 831 nM in data set [1].

B5: P23[3'-5] (dsDNA)
DNA 1: ATTTACTACTCGTTCTGGTGTTTCTCGT
DNA 2: AAACACCAGAACGAGTAGTAAATTGGGC
B5 yielded a Kd in data set [1] of 254 nM.

B6: P33 (dsDNA)
DNA 1: GCCCAATTTACTACTCGTTCTGGTGTTTCTCGT
DNA 2: ACGAGAAACACCAGAACGAGTAGTAAATTGGGC
With B6, the Kd in data set [1] is 2660 nM.

Usually Kd stands for the constant that tells how readily two partners part at equilibrium. A lower Kd goes with a tighter complex.
